Common to all, as to assay type: biochemical, Porphyromonas gingivalis
Substrate in series [1]: CC(=O)SCCNC(=O)CCNC(=O)[C@H](O)C(C)(C)COP(=O)(O)OP(=O)(O)OC[C@H]1O[C@@H](n2cnc3c(N)ncnc32)[C@H](O)[C@@H]1OP(=O)(O)O
In words: acetyl-CoA consumption at A233, Michaelis-Menten fit. Conditions: 100 mM Tris/phosphate pH 9.0 (phosphate co-substrate), 20 mM KCl, 37°C, acetyl-CoA 50-200 µM. The text has this:
acetyl-CoA consumption at A233, Michaelis-Menten fit on PgPta (PGN_1179)

Substrate in series [2]: Nc1ncnc2c1ncn2[C@@H]1O[C@H](COP(=O)(O)OP(=O)(O)O)[C@@H](O)[C@H]1O
In words: ATP formation coupled to hexokinase / glucose-6-phosphate dehydrogenase (NADPH, A340), secondary plots. Conditions: co-substrate AcP (0.0667-0.667 mM, extrapolated), 50 mM Tris/HCl pH 8.0, 1.3 mM MgCl2 (methods also mention MnCl2), 37°C. The text has this: (§1) ATP formation coupled to hexokinase / glucose-6-phosphate dehydrogenase (NADPH, A340), secondary plots on PgAck (PGN_1178)

Substrate in series [3]: CC(=O)OP(=O)(O)O
The description is as above. Conditions: co-substrate ADP (0.267-2.67 mM, extrapolated), 50 mM Tris/HCl pH 8.0, 1.3 mM MgCl2 (methods also mention MnCl2), 37°C.
Excerpt: as §1

B1: PgPta (PGN_1179) (Porphyromonas gingivalis ATCC 33277) (protein)
chain: MDLIQDVIRRAQENKQRIVLPEGLEPRTLEAADRLMADKVVNIILIGNVDSVKAKVAELGLKNLDEAVIIDPNNHPKKQQYTDLLLQIRQKKGLTPEKAAELVENPLYLGCLIVKSGDADGLIAGAQNTTGDVLRPALQVIKTAPGMTSVSGTFLLFTKAKEYGKDGLLLVADCAVIPNPTADELAQIAVATARTAKAIADIEPRVAMLSFSTKGSAKHEMTDKVVEATRMAQEMAPDLLIDGEMQADAALVERVAALKAPGSNVAGKANVLVFPTLEVGNIAYKLVERLGHAEAVGPILQGMAAPVNDLSRGCSVEDIYRMVAITANQAIAAKEQ
notes: full length (domains span residues 1-336), E. coli BL21(DE3), pGEX-6P-1, GST tag cut off by PreScission protease; EC 2.3.1.8
Broadly, the Km is the concentration of substrate that gives half-maximal velocity. The Vmax is the rate approached at saturating substrate. As usually defined, the kcat is the maximal rate divided by the concentration of active sites. As for B1, in series [1], the Km turned out to be 63.8 ± 7.5 µM, the Vmax came out at 2470 ± 105 µmol/min/mg and the kcat came to 1490 ± 63 s⁻¹.

B2: PgAck (PGN_1178) (Porphyromonas gingivalis ATCC 33277) (protein)
chain: MKVLVLNCGSSSVKYKLLEMPKGDVLAQGGVEKLGLPGSFLKLTMPNGEKVVLEKDMPEHTIAVEFILSVLKDDKYGCIKSYEEIDAVGHRLVHGGEKFSNSVEITPEVIAKVEECIPLAPLHNPANLKGVVAIEKLLPGIRQVGVFDTAFFQTMPEHVYRYALPYDMCNKHGVRRYGFHGTSHRYVSARACEILGLDYDKTRIITAHIGNGASIAAIKNGKALDVSLGMTPVEGLMMGTRSGDVDPGVLTFLMEAEGLQAAGISELINKKSGVLGVSGVSSDLREIEDAIKNGNERATLAMTMYDYRIKKYVGAYAAAMGGVDVLVFTGGVGENQYTTREKVCTDMEFMGIVFDSKVNEGMRGKEMVISKPESKVTVIVVPTDEEYMIASDTMTILK
notes: full length (398 residues), E. coli BL21(DE3), pET28a, N-terminal His6 tag cut off by thrombin; homodimer (108 kDa by gel filtration); EC 2.7.2.1
Regarding B2, in series [2], the Km is reported as 188 ± 22 µM, the Vmax was 145 µmol/min/mg and the kcat is 105 ± 1 s⁻¹. In series [3], the Km is reported as 22.2 ± 0.2 µM, the Vmax was 145 µmol/min/mg and the kcat is 105 ± 1 s⁻¹.

The values are drawn from publication PMC6461089, “Characterization of the phosphotransacetylase-acetate kinase pathway for ATP production in Porphyromonas gingivalis” (Journal of Oral Microbiology, 2019).
